The record followed here is patent publication US20250340666A1 (REGENTS OF THE UNIVERSITY OF COLORADO A BODY CORPORATE, published 2025).

Assay [1] deals with T1, CD99 epitope peptide antigen (15 amino acid sequence, SEQ ID NO: 1) (human).
T1 construct: It was used with an SA (streptavidin) biosensor
T1 peptide: DGENDDPRPPNPPKC
Briefly: BLI, OctetRED 384, SA biosensor. As to the method:
The affinity of one embodiment of the disclosed anti-CD99 antibody was tested against the CD99 epitope. Specifically, the epitope was a peptide antigen and the anti-CD99 antibody was the embodiment of 10D1-1 human IgG4/light chain1. As shown in FIG. 20. affinity was analyzed using an SA biosensor, and association and dissociation constants were monitored using OctetRED 384. […] 400 pM, 350 pM, 300 pM, 250 pM, 200 pM, 150 pM, 100 pM, 90 pM, 80 pM, 70 pM. 60 pM, 50 pM, 40 pM, 30 pM, 20 pM, or 10 pM, and less than about 1 pM, 10 pM, 50 pM, 100 pM, 200 pM, 300 pM, 400 pM, 500 pM, 600 pM. 700 pM, 800 pM, or900 pM.
Background: Biolayer interferometry detects binding as a change in optical thickness at a sensor tip.

The target in assay [2] is T2, human CD99 (human, UniProt P14209 23-185).
T2 construct: whole, on cells; Endogenous CD99 on patient-derived DIPG cells (flow cytometry) and DIPG tumor tissue sections (IHC); also called MIC2/CD99; cell surface CD99 protein
T2 sequence (looked up): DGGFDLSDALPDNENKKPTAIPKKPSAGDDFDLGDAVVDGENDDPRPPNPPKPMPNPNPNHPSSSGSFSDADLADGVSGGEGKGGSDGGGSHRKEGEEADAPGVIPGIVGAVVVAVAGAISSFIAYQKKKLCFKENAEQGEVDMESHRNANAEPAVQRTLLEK
Briefly: flow cytometry on DIPG cells: pre-incubation with 10D1-CD99 antibody, then detection of CD99 with the commercial 0662 CD99 antibody (the competitor). As to the method: The engagement/binding of the presently disclosed 10D1-CD99 antibody to the human CD99 epitope was tested.

B1: 10D1-CD99 antibody (antibody, V domains shown)
VH: EVQLQQSGPELVKPGASVKISCKASGYSFTGYYMHWVKQSHVKSLEWIGRINPYTGATTYNQIFKDKATLTLDKSSSTAYMELHSLTSEDSAIFYCARYYYGNNYNVYLDYWGQGTTLTVSS
VL: DIQLTQTTSSLSASLGDRVTISCSASQGISNYLSWYQQKPDGTFKLLIYYTSTLHSGVPSRFSGSGSGTDYSLTISNLEPEDIATYYCQQYSNLPWTFGGGTRLEIK
notes: also called rh10D1 anti-CD99 antibody; rh10D1-CD99
B1: in assay [1], the Kd came to 0.436 nM, the koff worked out at 0.000744 s⁻¹ and the on-rate constant (kon) is ~1.71e+06 M⁻¹ s⁻¹. In addition, the binding result in assay [2] was “binds”.

By Kd is commonly meant the constant that tells how readily two partners part at equilibrium. Read a low Kd as a tighter complex. The koff is the rate constant with which the complex falls apart. A low value points to slow dissociation. As usually defined, the kon is the second-order rate constant of association. Lower therefore signals slow association.
